Tests used:
Assay in all cases: MST; 10 mM MgCl2; MST: 20 mM HEPES pH 7.5, 10 mM MgCl2, 0.05% Tween-20; 420 nM labelled U30 with protein titrated, or labelled peptide with RNA titrated; temperature not stated
[1] = molecular target: T1, hnRNPA2 LCD deltaNAID2 (human, UniProt P22626 200-306, del307-353); details: protein: recombinant; (stated for LCD only)
T1 sequence: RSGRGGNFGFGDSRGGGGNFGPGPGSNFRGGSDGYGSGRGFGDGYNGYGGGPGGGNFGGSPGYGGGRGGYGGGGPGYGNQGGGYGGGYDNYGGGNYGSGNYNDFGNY

[2] = molecular target: hnRNPA2 LCD (human, UniProt P22626 200-353); details: protein: recombinant; tags: 6xHis removed by TEV
[3] = molecular target: T2, hnRNPA2 LCD deltaNAID1 (human, UniProt P22626 200-353, del239-306); details: protein: recombinant; (stated for LCD only)
T2 sequence: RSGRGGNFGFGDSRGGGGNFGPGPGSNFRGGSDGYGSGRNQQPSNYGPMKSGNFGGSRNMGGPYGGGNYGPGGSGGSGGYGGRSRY

Sequence of hnRNPA2 LCD (P22626 200-353): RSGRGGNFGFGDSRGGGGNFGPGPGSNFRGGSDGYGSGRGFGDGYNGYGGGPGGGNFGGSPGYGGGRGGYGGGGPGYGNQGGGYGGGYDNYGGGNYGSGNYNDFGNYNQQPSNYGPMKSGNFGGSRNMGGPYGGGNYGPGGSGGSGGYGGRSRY

UUUUUUUUUUUUUUUUUUUUUUUUUUUUUU (ssRNA) [U30 (labelled)] showed a Kd [1] of 13 ± 3 µM, a Kd [2] of 0.72 ± 0.002 µM and a Kd [3] of 41 ± 1.4 µM.

Source: paper PMC9067507, “F/YGG-motif is an intrinsically disordered nucleic-acid binding motif”
